# Biological target: Sp-1 human recombinant protein (Promega) (Homo sapiens, UniProt P08047 1-785)
# Assay: EMSA
# Sp-1 human recombinant protein (Promega), sequence (P08047 whole entry): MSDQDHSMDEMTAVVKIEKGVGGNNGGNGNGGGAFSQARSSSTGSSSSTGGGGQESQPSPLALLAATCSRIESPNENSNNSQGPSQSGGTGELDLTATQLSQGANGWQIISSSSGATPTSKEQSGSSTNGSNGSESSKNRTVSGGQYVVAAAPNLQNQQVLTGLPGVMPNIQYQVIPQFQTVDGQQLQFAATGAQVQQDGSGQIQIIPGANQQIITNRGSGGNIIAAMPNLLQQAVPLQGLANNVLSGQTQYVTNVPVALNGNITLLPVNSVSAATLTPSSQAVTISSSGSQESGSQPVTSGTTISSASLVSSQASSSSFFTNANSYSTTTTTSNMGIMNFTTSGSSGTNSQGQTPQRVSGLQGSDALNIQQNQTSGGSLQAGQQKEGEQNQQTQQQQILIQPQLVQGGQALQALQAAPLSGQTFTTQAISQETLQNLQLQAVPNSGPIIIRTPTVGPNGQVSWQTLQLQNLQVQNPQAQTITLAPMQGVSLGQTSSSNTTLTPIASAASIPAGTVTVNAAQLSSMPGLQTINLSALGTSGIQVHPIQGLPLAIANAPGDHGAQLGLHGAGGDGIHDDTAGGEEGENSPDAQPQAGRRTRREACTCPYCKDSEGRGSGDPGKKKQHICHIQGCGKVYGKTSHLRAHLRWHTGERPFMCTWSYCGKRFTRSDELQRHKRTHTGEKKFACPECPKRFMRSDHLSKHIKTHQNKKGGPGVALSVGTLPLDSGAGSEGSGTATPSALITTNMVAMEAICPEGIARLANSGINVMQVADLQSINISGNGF
binder,measurement,value
Sp-1 probe (ER alpha promoter) (dsDNA) DNA 1: TCGTGCGCCCCCGCCCCCTGGCCGTG DNA 2: CACGGCCAGGGGGCGGGGGCGCACGA,binding result,binds
